How the values were obtained:
155B-VP16 = biological target: T1, 155B-VP16; experiment: split TF YFP reporter assay in S. cerevisiae (all-by-all matrix, FIG. 1D)
T1 construct: Expressed in S. cerevisiae; also called DHD155B fused to VP16
T1 chain: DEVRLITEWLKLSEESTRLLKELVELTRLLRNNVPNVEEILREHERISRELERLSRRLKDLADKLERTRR

[1] = biological target: T2, DHD37B (fusion partner in the split TF assay not stated for this statement); experiment: split TF YFP reporter assay in S. cerevisiae (all-by-all matrix, FIG. 1D); orientation of the fusions not told
T2 construct: not shown: fused to VP16 or ZF43_8
T2 chain: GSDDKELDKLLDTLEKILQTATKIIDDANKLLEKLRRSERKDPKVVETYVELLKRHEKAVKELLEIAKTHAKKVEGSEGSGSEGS

37B-VP16 = biological target: T3, 37B-VP16; experiment: split TF YFP reporter assay in S. cerevisiae (all-by-all matrix, FIG. 1D)
T3 construct: Expressed in S. cerevisiae; also called DHD37B fused to VP16; 37B DHD-AD
T3 chain: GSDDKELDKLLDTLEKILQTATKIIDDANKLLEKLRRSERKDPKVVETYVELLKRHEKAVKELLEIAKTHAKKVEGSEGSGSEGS

154B-VP16 = biological target: T4, 154B-VP16; experiment: competition in the split TF YFP reporter assay in yeast, layout of FIG. 2A (FIG. 2D)
T4 construct: Expressed in S. cerevisiae; also called DHD154B fused to VP16
T4 chain: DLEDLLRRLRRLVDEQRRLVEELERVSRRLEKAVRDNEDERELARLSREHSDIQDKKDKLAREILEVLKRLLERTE

B1: 155A-ZF43_8 (designed binder)
chain: PEDDVVRIIKEDLESNREVLREQKEIHRILELVTRGEVSEEAIDRVLKRQEDLLKKQKESTDKARKVVEERR
notes: Expressed in S. cerevisiae; also called DHD155A fused to ZF43_8
B1: binds (155B-VP16).

B2: DHD13B (fusion partner in the split TF assay not stated for this statement) (designed binder)
chain: GTEKRLLEEAERAHREQKEIIKKAQELHRRLEEIVRQSGSSEEAKKEAKKILEEIRELSKRSLELLREILYLSQEQKGSEGSGSEGS
notes: not shown: fused to VP16 or ZF43_8
B2: binds [1].

B3: 37A-ZF43_8 (designed binder)
chain: DSDEHLKKLKTFLENLRRHLDRLDKHIKQLRDILSENPEDERVKDVIDLSERSVRIVKTVIKIFEDSVRKKEGSEGSGSEGS
notes: Expressed in S. cerevisiae; also called DHD37A fused to ZF43_8; 37A DHD-DBD
B3: binds (37B-VP16).

B4: 154A dominant negative (designed binder)
chain: TAEELLEVHKKSDRVTKEHLRVSEEILKVVEVLTRGEVSSEVLKRVLRKLEELTDKLRRVTEEQRRVVEKLN
notes: also called DN
B4: binds (154B-VP16).
